Each block holds one binder with its values, some of them ahead of it.
Experiments:
Core_NNNN-es_KEKE = target: T1, Core_NNNN-es_KEKE; assay: two-hybrid library CCmax; settings: mean of both orientations;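 note: natural log of median RNA to DNA barcode read ratio; higher means stronger binding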
T1 chain: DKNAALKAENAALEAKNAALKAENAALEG

P4SC1 [1] = target: T2, P4SC1; assay: two-hybrid library CCmax; settings: mean of both orientations;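 note: natural log of median RNA to DNA barcode read ratio; higher means stronger binding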
T2 chain: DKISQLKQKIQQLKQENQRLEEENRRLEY

P4SC1 [2] = target: T2, P4SC1; assay: two-hybrid library CCNG1;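 note: natural log of median RNA to DNA barcode read ratio; higher means stronger binding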
Core_NNNN-es_KKEE = target: T3, Core_NNNN-es_KKEE; assay: two-hybrid library CCmax; settings: mean of both orientations;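 note: natural log of median RNA to DNA barcode read ratio; higher means stronger binding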
T3 chain: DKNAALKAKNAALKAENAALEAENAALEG

4H1046-bA = target: T4, 4H1046-bA; assay: two-hybrid library CCNG1; settings: mean of both orientations;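 note: natural log of median RNA to DNA barcode read ratio; higher means stronger binding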
T4 chain: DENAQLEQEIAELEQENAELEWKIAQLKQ

4H2745-bA = target: T5, 4H2745-bA; assay: two-hybrid library CCNG1;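 note: natural log of median RNA to DNA barcode read ratio; higher means stronger binding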
T5 chain: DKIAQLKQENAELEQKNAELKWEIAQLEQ

4H470-bA = target: T6, 4H470-bA; assay: two-hybrid library CCNG1
T6 chain: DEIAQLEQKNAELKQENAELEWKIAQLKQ

4H363-bA = target: T7, 4H363-bA; assay: two-hybrid library CCNG1
T7 chain: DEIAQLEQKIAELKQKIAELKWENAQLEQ

4H2568-bA = target: T8, 4H2568-bA; assay: two-hybrid library CCNG1
T8 chain: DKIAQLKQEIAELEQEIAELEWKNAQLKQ

4H344-bA = target: T9, 4H344-bA; assay: two-hybrid library CCNG1
T9 chain: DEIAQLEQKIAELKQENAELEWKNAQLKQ

4H3961-bA = target: T10, 4H3961-bA; assay: two-hybrid library CCNG1; settings: mean of both orientations
T10 chain: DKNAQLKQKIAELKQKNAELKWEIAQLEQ

4H3907-bA = target: T11, 4H3907-bA; assay: two-hybrid library CCNG1
T11 chain: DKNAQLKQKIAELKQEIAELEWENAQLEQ

4H1072-bA = target: T12, 4H1072-bA; assay: two-hybrid library CCNG1
T12 chain: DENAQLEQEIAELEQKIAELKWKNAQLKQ

4H2619-bA = target: T13, 4H2619-bA; assay: two-hybrid library CCNG1
T13 chain: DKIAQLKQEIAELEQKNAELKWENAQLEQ

B2: P3SC1 (peptide)
chain: DEIQQLEEEISQLEYKNYALKAKNEELKR
- interaction score (P4SC1 [1]): 1.43
- interaction score (P4SC1 [2]): 2.22

B4: 4H1046-bA (peptide)
chain: DENAQLEQEIAELEQENAELEWKIAQLKQ
- interaction score (4H1046-bA): -0.316
- interaction score (4H2745-bA): 0.103
- interaction score (4H470-bA): 0.412
- interaction score (4H363-bA): 0.269
- interaction score (4H2568-bA): -1.17
- interaction score (4H344-bA): -0.743
- interaction score (4H3961-bA): 1.98
- interaction score (4H3907-bA): -0.392
- interaction score (4H1072-bA): -0.435
- interaction score (4H2619-bA): -0.535

Continued, values first:

- interaction score (Core_NNNN-es_KEKE): -0.668
B1: Core_NNNN-es_EKEK (peptide)
chain: DENAALEAKNAALKAENAALEAKNAALKG

- interaction score (Core_NNNN-es_KKEE): 0.234
B3: Core_NNNN-es_EEKK (peptide)
chain: DENAALEAENAALEAKNAALKAKNAALKG

Reference: PMC10397247
